Experimental data as given in US20240360242A1 (KISOJI BIOTECHNOLOGY, published 2024).
Residue numbers refer to the chain shown, from its start.

Legend:
[1] = biological target: T1, recombinant human TROP2 extracellular domain (aa 1-274) comprising His tag (human, UniProt P09758 27-274); assay: competitive ELISA on coated recombinant human TROP2, competitor KD004-His, anti-His-HRP
T1 construct: Used here for all assays on recombinant human TROP2 (ELISA, immunoblot, SPR, crystal), although only some of them name the catalogue number; also called human recombinant TROP2; recombinant human TROP2 protein; not shown: His tag
T1 sequence: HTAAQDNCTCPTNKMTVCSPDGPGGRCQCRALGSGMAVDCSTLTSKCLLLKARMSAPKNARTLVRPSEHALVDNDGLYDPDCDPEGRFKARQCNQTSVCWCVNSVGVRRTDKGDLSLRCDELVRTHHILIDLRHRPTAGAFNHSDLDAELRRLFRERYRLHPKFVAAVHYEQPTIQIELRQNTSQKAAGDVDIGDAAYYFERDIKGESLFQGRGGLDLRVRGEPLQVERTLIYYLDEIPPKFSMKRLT
Protocol: The epitope characterization was assessed by competitive ELISA (FIG. 8 and FIG. 9). Microplates were coated with human recombinant TROP2 at 4° C. overnight. After washing, plates were blocked with blocking buffer (PBS+2% BSA), for 1 hour at room temperature. Meanwhile, the dilution for anti-TROP2 VHH sdAbs was prepared with blocking buffer making two different dilutions depending on the tag. For sdAbs with His tag, the antibody was diluted to 28571.4 pM. For sdAbs without tag, antibodies were serially diluted from 2857142.9 pM to 0.29 pM (8 dilutions, 10×). After that, equal volume of the his-tagged sdAbs and serial diluted non-tagged sdAbs were mixed, to make the final concentration of his-tagged sdAbs 14285.7 pM and non-tagged sdAbs from 1428571.4 pM to 0.14 pM. After washing two times, the mixed antibody contents were added into the wells and the plates were incubated for 2 hours at room temperature. The HRP-conjugated anti-6× His was diluted to 1:5000 and added to the wells after washing three times. Any unbound conjugate was removed by washing after 1 hour incubation at room temperature, and the colorimetric reaction was performed by adding the same volume of Supersignal ELISA Pico Luminol/Enhancer and SuperSignal ELISA Pico Stable Peroxide Solution and detected on SpectraMax i3x Microplate Reader. Positive and negative controls were included in each plate.

[2] = biological target: T1, recombinant human TROP2 extracellular …; assay: ELISA, coated rh TROP2, normalized to KD005
[3] = biological target: T2, recombinant human IGFBP-1 (human, UniProt P08833 26-259); assay: ELISA
T2 construct: also called rhIGFB-1
T2 sequence (looked up): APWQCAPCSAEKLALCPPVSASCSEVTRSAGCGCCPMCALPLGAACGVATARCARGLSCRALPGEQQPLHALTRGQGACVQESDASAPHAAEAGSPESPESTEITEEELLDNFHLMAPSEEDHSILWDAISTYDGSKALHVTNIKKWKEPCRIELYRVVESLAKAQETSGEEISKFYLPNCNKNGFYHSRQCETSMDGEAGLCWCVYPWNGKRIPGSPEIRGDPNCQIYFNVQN

recombinant human EpCAM = biological target: T3, recombinant human EpCAM (human, UniProt P16422 24-265); assay: ELISA
T3 construct: also called rhEpCAM
T3 sequence (looked up): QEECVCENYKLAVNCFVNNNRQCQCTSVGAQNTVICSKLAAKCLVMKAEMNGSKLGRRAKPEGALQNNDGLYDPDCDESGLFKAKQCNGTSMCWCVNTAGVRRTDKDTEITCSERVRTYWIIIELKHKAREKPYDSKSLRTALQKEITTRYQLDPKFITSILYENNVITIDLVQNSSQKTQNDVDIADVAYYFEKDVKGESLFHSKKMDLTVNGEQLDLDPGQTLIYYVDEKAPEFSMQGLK

B1: KD004 (antibody, human IgG1, V domains shown)
VH: QVQLQESGGGLVQPGRSLRLSCAASGFTFSGSDMSWVRQAPGKGPEWVSYITGSGTTYYPDSVKGRFTTSRDNAKNMLYLQMNSLKPDDTALYRCAKARLTDSHYVEDAWGQGTQVTVSS
notes: also called anti-TROP2 sdAb KD004
For B1, the “IC50 (read off the curve)” value [1] was ~60 nM.

B2: KD005 (antibody, human IgG1, V domains shown)
VH: B1 VH with Q13E, P14A, R16G, G53S, S54G, T69I, M77T, A98S
notes: also called anti-TROP2 sdAb KD005
With B2 the “EC50 relative to KD005” value [2] was 1 ratio to KD005.

B3: KD007 (antibody, human IgG1, V domains shown)
VH: QVQLQESGGGLVQPGGSLRLSCAASGFAFSFYAMAWYRQAPGKQRDMVATITAYGNTNYADSVKGRFTTSRDNAKNTVYLQMNSLKPEDTAVYVCNANLPSASHNYWGQGTQVTVSS
notes: also called anti-TROP2 sdAb KD007
B3: no binding [3]; no binding (recombinant human EpCAM).
